Assay results reported in patent US20130177660A1 (NATIONAL UNIVERSITY CORPORATION NAGOYA UNIVERSITY, published 2013).

Target: T1, Flag-RFP (Flag-tagged RET finger protein) (Homo sapiens, UniProt P14373 1-513)
T1 construct: Expressed by transient transfection in HEK293 cells and tested in cell lysates by co-immunoprecipitation; also called TRIM27; pFlag-RFP; not shown: Flag tag from the pFlag vector
T1 sequence: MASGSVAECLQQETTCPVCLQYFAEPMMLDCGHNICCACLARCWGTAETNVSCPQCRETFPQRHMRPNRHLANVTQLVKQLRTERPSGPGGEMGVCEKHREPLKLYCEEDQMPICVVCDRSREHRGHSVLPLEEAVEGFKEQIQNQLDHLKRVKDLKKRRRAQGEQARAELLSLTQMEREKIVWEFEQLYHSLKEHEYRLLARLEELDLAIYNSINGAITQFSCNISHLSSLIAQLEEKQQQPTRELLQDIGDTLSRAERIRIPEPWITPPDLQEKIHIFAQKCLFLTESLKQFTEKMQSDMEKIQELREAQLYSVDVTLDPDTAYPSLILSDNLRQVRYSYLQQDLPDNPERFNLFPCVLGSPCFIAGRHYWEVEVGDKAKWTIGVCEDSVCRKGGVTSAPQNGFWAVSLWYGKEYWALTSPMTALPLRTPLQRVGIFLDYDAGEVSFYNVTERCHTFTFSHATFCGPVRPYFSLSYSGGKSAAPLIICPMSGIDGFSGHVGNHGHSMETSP
Assay: co-IP from HEK293 cells co-transfected with GFP-RFP and Flag-RFP; anti-Flag IP, anti-GFP blot
Description: FIG. 7 RFP Oligomerization (a) RFP forms homo-oligomer, HEK293 cells were co-transfected with GFP-RFP and Flag-RFP, and immunoprecipitated with anti-Flag antibody followed by immunoblotting with anti-Flag and anti-GFP antibodies. Anti-HA antibody was used as mock. WCL: whole cell lysates. (b) Ring-B-box and Coiled-coil domains, but not Rfp domain, of RFP were required for its oligomerization. HEK293 cells were co-transfected with GFP-RFP and Flag tagged RFP deletion constructs, and immunoprecipitated with anti-Flag antibody. The pFlag vector was used as control. Arrow heads indicate Flag-tagged RFP constructs.

binding result: binds
B1: GFP-RFP (other)
chain: T1 sequence
notes: RFP cDNA inserted into the pEGFP-C1 vector; also called RFP in pEGFP-C1; not shown: GFP (EGFP of the pEGFP-C1 vector) and linker
